Where a chain is given by its changes, count along the chain named. Names may count otherwise. Read-outs that look alike come from different tables or passages of the source.

The target of assay [1] is T1, mouse HVEM extracellular domain fused with an Fc fragment at the C-terminus (mouse, UniProt Q80WM9 39-206, limits assumed).
T1 construct: extracellular domain; Bought; also called mHVEM; not shown: Fc fragment at the C-terminus
T1 sequence (looked up): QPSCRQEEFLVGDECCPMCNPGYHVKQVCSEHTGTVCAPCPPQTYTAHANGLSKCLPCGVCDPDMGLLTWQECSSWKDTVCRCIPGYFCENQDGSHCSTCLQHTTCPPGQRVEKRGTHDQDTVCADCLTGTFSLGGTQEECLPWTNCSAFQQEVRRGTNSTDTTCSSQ
As to the kind of experiment: phage ELISA. The gist of the method:
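Supernatants from fourth-round clones rescued with helper phage were applied to plates coated with 1 μg/ml target for 1 h at room temperature. Bound phage detected with HRP anti-M13 and TMB at OD450; clones were called positive when the target/BSA ratio was >3.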

The target in assay [2] is T2, human HVEM extracellular domain fused with an Fc fragment at the C-terminus (human, UniProt Q92956 39-202).
T2 construct: extracellular domain; Bought; also called hHVEM; not shown: Fc fragment at the C-terminus
T2 sequence (looked up): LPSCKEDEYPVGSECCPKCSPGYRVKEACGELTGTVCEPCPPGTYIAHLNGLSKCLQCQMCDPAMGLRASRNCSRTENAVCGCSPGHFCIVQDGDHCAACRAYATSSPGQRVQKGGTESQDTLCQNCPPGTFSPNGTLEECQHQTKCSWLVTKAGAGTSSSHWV
The assay can be described thus: ELISA on coated target-Fc. The method, then: (§1) Nunc MaxiSorp 96-well plates (Thermofisher) were coated with target proteins (1 μg/ml), and then blocked with 2% BSA-PBS buffer for one hour. Serial dilutions of the LIGHT muteins were added with a maximum concentration of 200 ng/ml. The plates were incubated for one hour, washed four times with PBST, and then incubated with mouse anti-His tag antibody (#105327, Sino Biological) for 1 hour. The plates were further incubated with HRP-conjugated goat anti-mouse secondary antibody (#SSA006, Sino Biological) before being washed three times with PBST and treated with TMB substrate (#34029, ThermoFisher). The plates were read at 450 nm on a SpectraMax M5 microplate reader (Molecule Devices). The ELISA results were analyzed using GraphPad Prism 9.0 software and the EC50s (half maximal effective concentration) were summarized in Table 5-1 and Table 5-2.

Assay [3] addresses T3, mouse LTβR extracellular domain fused with an Fc fragment at the C-terminus (mouse, UniProt P50284 31-223).
T3 construct: extracellular domain; Bought; also called mLTβR; not shown: Fc fragment at the C-terminus
As to the kind of experiment: ELISA on coated target-Fc. The procedure: as §1

Assay [4] concerns the target T4, human LTβR extracellular domain fused with an Fc fragment at the C-terminus (human, UniProt P36941 31-227).
T4 construct: extracellular domain; Bought; also called hLTβR; not shown: Fc fragment at the C-terminus
As to the kind of experiment: ELISA on coated target-Fc. The method, then:
as §1

Assay [5] has as its target T3, mouse LTβR extracellular domain fused …. As to the kind of experiment: ELISA on coated target-Fc. The method, then:
as §1
The source holds these as a separate data set.

Assay [6] addresses T4, human LTβR extracellular domain fused …. As to the kind of experiment: ELISA on coated target-Fc. The procedure: as §1
This is another data set of the same source.

Assay [7] concerns the target T2, human HVEM extracellular domain fused …. As to the kind of experiment: ELISA on coated target-Fc. The method, then:
as §1
The source holds these as a separate data set.

The target in assay [8] is T5, recombinant DcR3 protein (human DcR3 residues 33-300 linked to the N-terminal of rabbit Fc) (human, UniProt O95407 33-300).
T5 construct: range 33-300; Expressed in Expi293F, purified on protein A; not shown: rabbit Fc
T5 sequence (looked up): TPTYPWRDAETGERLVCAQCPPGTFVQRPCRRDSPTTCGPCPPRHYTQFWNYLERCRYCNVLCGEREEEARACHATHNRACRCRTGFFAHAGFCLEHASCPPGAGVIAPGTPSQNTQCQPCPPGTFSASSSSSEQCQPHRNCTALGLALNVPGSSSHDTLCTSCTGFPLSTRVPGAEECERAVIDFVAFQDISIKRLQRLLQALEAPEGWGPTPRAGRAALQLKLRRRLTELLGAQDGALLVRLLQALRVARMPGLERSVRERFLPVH
As to the kind of experiment: ELISA on coated DcR3-rabbit Fc. The method, then:
To test whether the muteins can bind to DcR3, the recombinant DcR3 protein was generated by linking human DcR3 residues 33-300 to the N-terminal of rabbit Fc. The recombinant proteins were expressed in Expi293F and affinity-purified using protein A beads, as previously described. Human DcR3 proteins were immobilized onto maxiSorp 96-well ELISA plates (Thermo Fisher) at a concentration of 0.5 μg/mL and then blocked with 2% BSA-PBS buffer for one hour. The LIGHT variants were added to the plates at various dilutions, with a maximum concentration of 10 nM. The plates were incubated for one hour, washed four times with PBST, and then incubated with mouse anti-His tag antibody (#105327, Sino Biological) for 1 hour. The plates were further incubated with HRP-conjugated goat anti-mouse secondary antibody (#SSA006, Sino Biological) before being washed three times with PBST and treated with TMB substrate (#34029, ThermoFisher). The plates were read at 450 nm on a SpectraMax M5 microplate reader (Molecule Devices). The ELISA results were analyzed using GraphPad Prism 9.0 software and the EC50s (half maximal effective concentration) were summarized in Table 5-2.

T3 sequence (P50284 31-223): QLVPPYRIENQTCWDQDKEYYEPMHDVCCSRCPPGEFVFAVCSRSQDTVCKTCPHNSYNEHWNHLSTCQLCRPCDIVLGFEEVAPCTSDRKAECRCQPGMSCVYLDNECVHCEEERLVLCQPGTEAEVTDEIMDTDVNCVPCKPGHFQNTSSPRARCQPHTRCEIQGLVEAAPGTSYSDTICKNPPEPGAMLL
T4 sequence (P36941 31-227): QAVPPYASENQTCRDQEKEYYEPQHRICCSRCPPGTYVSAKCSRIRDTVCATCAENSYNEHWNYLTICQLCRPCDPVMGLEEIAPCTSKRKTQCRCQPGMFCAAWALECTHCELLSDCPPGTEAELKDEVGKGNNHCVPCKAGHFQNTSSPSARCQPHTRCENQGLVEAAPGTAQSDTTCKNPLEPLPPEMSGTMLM

B1: LIGHT-22 (ligand)
chain: DGPAGSWEQLIQERRSHEVNPAAHLTGANSSLTGSGGPLLWETQLGLAFLRGLSYHDGALVVTKAGYYYIYSKVQLGGVGCPLGLAGSITHGLYKRTPRYPEELELLVSQQSPCGRATSSSRVWWDSSFLGGVVHLEAGEKVVVRVSDERLVRLRDGTRSYFGAFMV
notes: Printed mutations: S160G, T161S, L220S; Soluble protein carries an N-terminal His tag
With B1, the binding result in assay [1] was “binds”. Further, the EC50 in assay [2] is 0.0471 µg/mL; in assay [3], 0.0624 µg/mL; in assay [4] it was 0.0686 µg/mL.

B2: LIGHT-42 (ligand)
chain: B1 chain with G77R, G87S, S88T
notes: Printed mutations: G150R, L220S; Soluble protein carries an N-terminal His tag
Consider B2, for which the binding result in assay [1] is “binds”. Further, the EC50 in assay [2] is 0.0814 µg/mL; in assay [3] it was 0.025 µg/mL; in assay [4], 0.0639 µg/mL.

B3: LIGHT-31 (ligand)
chain: B1 chain with G87R
notes: Printed mutations: S160R, T161S, L220S; Soluble protein carries an N-terminal His tag
Consider B3, for which the binding result in assay [1] was “binds”. The EC50 came to 0.051 µg/mL in assay [2], 0.0747 µg/mL in assay [3] and 0.0867 µg/mL in assay [4].

B4: LIGHT-88 (ligand)
chain: B1 chain with A22T, G77R, G87R, S88T, P101L, W125Q, R155L
notes: Printed mutations: A95T, G150R, S160R, P174L, W198Q, L220S, R228L; Soluble protein carries an N-terminal His tag
As for B4, the EC50 is 0.262 nM in assay [5] and 0.264 nM in assay [6].

B5: LIGHT-24 (ligand)
chain: B1 chain with S88T, A117T
notes: Printed mutations: S160G, A190T, L220S; Soluble protein carries an N-terminal His tag
Take B5: the binding result in assay [1], in assay [3] and in assay [4] was “binds” each time. The same molecule had an EC50 in assay [2] of 0.0632 µg/mL.

B6: LIGHT-27 (ligand)
chain: B1 chain with G87N, E149D
notes: Printed mutations: S160N, T161S, L220S, E222D; Soluble protein carries an N-terminal His tag
As to B6, the binding result in assay [1] is on record as “binds”. For the same molecule, the EC50 is 0.0504 µg/mL in assay [2], 0.0642 µg/mL in assay [3] and 0.0827 µg/mL in assay [4].

B7: LIGHT-89 (ligand)
chain: B1 chain with A22T, G77R, G87R, S88T, P101L, W125Q, S147L, R155L
notes: Soluble protein carries an N-terminal His tag
As to B7, the results for the EC50 in assay [5] and in assay [6] were 0.503 nM and 0.625 nM, respectively.

B8: LIGHT-86 (ligand)
chain: B1 chain with G77R, G87R, S88T
notes: Printed mutations: G150R, S160R, L220S; Soluble protein carries an N-terminal His tag
Turning to B8, the EC50 in assay [7] turned out to be 5.27 nM; in assay [5], 0.327 nM; in assay [6], 0.336 nM; in assay [8], 25.9 nM.

B9: LIGHT-39 (ligand)
chain: B1 chain with L85P, G87S, S88T, L93M, S147M
notes: Printed mutations: L158P, L166M, L220M; Soluble protein carries an N-terminal His tag
For the molecule B9, the binding result in assay [1] is reported as “binds”. In addition, the EC50 in assay [2] is 0.049 µg/mL; in assay [3], 0.0239 µg/mL; in assay [4] it was 0.0542 µg/mL.

B10: LIGHT-28 (ligand)
chain: B1 chain with G87N, S88T, K141E, S147L, L154M
notes: Printed mutations: S160N, K214E, L227M; Soluble protein carries an N-terminal His tag
Regarding B10, in assay [1], the binding result is given as “binds”. Further, the results for the EC50 in assay [2], in assay [3] and in assay [4] were 0.0873 µg/mL, 0.256 µg/mL and 0.0811 µg/mL, respectively.

B11: LIGHT-60 (ligand)
chain: B1 chain with S88G, E149S
notes: Printed mutations: S160G, T161G, L220S, E222S; Soluble protein carries an N-terminal His tag
As to B11, the EC50 turned out to be 0.639 nM in assay [7], 0.63 nM in assay [5], 0.919 nM in assay [6] and 0.311 nM in assay [8].

B12: LIGHT-35 (ligand)
chain: B1 chain with G87S, E149N
notes: Printed mutations: T161S, L220S, E222N; Soluble protein carries an N-terminal His tag
Consider B12, for which the binding result in assay [1] is given as “binds”. The results for the EC50 in assay [2], in assay [3] and in assay [4] were 0.0416 µg/mL, 0.0383 µg/mL and 0.0703 µg/mL, respectively.

B13: LIGHT-25 (ligand)
chain: B1 chain with G87H, S88T
notes: Printed mutations: S160H, L220S; Soluble protein carries an N-terminal His tag
In the case of B13, the binding result in assay [1] and in assay [4] was “binds” in each case. The EC50 in assay [2] was found to be 0.0542 µg/mL; in assay [3], 0.0323 µg/mL.

B14: LIGHT-61 (ligand)
chain: B1 chain with S88P, E149S
notes: Printed mutations: S160G, T161P, L220S, E222S; Soluble protein carries an N-terminal His tag
Consider B14, for which the EC50 in assay [7] stood at 0.46 nM; in assay [5] it was 0.498 nM; in assay [6] it was 0.482 nM; in assay [8] it was 0.213 nM.

B15: LIGHT-34 (ligand)
chain: B1 chain with G87S
notes: Printed mutations: T161S, L220S; Soluble protein carries an N-terminal His tag
As for B15, the binding result in assay [1] was “binds”. The EC50 was 0.0202 µg/mL in assay [2], 0.0446 µg/mL in assay [3] and 0.059 µg/mL in assay [4].

B16: LIGHT-37 (ligand)
chain: B1 chain with G87S, S88T, A117T, F129Y, K141E, S147L
notes: Printed mutations: A190T, F202Y, K214E; Soluble protein carries an N-terminal His tag
B16: in assay [1], the binding result is listed as “binds”. Also, the results for the EC50 in assay [2], in assay [3] and in assay [4] were 0.037 µg/mL, 0.0678 µg/mL and 0.0434 µg/mL, respectively.

B17: LIGHT-26 (ligand)
chain: B1 chain with G87H, S88T, E149Q
notes: Printed mutations: S160H, L220S, E222Q; Soluble protein carries an N-terminal His tag
With B17, the binding result in assay [1] is given as “binds”. The 50% effective concentration (EC50) is 0.0484 µg/mL in assay [2], 0.0483 µg/mL in assay [3] and 0.0727 µg/mL in assay [4].

B18: LIGHT-23 (ligand)
chain: B1 chain with S88T
notes: Printed mutations: S160G, L220S; Soluble protein carries an N-terminal His tag
B18: the binding result in assay [1] is on record as “binds”. Further, the EC50 in assay [2] came to 0.0588 µg/mL; in assay [3], 0.0916 µg/mL; in assay [4] it was 0.0892 µg/mL.

B19: LIGHT-87 (ligand)
chain: B1 chain with G77R, G87R, S88T, W125Q, R155L
notes: Printed mutations: G150R, S160R, W198Q, L220S, R228L; Soluble protein carries an N-terminal His tag
Take B19: the EC50 in assay [7] was determined as 6.68 nM; in assay [5], 0.315 nM; in assay [6] it was 0.413 nM.

B20: LIGHT-36 (ligand)
chain: B1 chain with G87S, S88T, H135Y, S147L
notes: Printed mutations: H208Y; Soluble protein carries an N-terminal His tag
Turning to B20, the binding result in assay [1] is reported as “binds”. The EC50 in assay [2] came out at 0.137 µg/mL; in assay [3] it was 0.27 µg/mL; in assay [4], 0.19 µg/mL.

B21: LIGHT-29 (ligand)
chain: B1 chain with G87N, S88T
notes: Printed mutations: S160N, L220S; Soluble protein carries an N-terminal His tag
With B21, the binding result in assay [1] is recorded as “binds”. Also, the EC50 in assay [2] came to 0.0428 µg/mL; in assay [3] it was 0.0209 µg/mL; in assay [4] it was 0.0452 µg/mL.

B22: LIGHT-58 (ligand)
chain: B1 chain with S88G
notes: Printed mutations: S160G, T161G, L220S; Soluble protein carries an N-terminal His tag
As to B22, the EC50 in assay [7] turned out to be 0.432 nM; in assay [5] it was 0.273 nM; in assay [6] it was 0.309 nM; in assay [8] it was 0.184 nM.

(Values after patent US20250361288A1 (Gilead, published 2025).)
